EP4778535A1 (Akeso Biopharma Co., Ltd., dated 2026)

Target: T1, human TIGIT-hFc (human, UniProt Q495A1 22-141)
T1 sequence (looked up): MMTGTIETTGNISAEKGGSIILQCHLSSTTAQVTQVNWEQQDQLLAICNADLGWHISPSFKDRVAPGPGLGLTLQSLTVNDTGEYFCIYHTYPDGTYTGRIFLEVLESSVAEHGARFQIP
Test: indirect ELISA screen of hybridomas with human TIGIT-hFc as antigen

B1: 26B12 (antibody, V domains shown)
VH: EVQLQESGPGLVKPSQSLSLTCTVTGHSFTSDYAWNWIRQFPGNRLEWMGYISYSDSTNYNPSLKSRISITRDTSKNQFFLQMNSVTTEDTATYYCARLDYGNYGGAMDYWGQGTSVTVSS
VL: DIVLTQSHEFMSTSLRDRVSITCKSSQHVSTAVAWYQQKPGQSPKLLIYSASYRYTGVPDRFTGSGSGTDFTFTISSVKAEDLAVYYCQQHYITPWTFGGGTKLEIK
notes: Murine monoclonal antibody from a hybridoma; also called anti-TIGIT antibody 26B12; monoclonal antibody secreted by hybridoma cell line LT019
B1: binds.
